Experimental data taken from the nanobody polyreactivity screen of Harvey et al. (2022).

Assay: yeast display, Sf9 membrane polyspecificity reagent, FACS + sequencing; frameworks hold sequencing errors
How it was run: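 After 36–48 hours of galactose induction, yeast (Saccharomyces cerevisiae BJ5465) displaying a synthetic nanobody library were stained at 4 °C for 1 hour with 10% biotinylated, detergent-solubilized Sf9 membrane reagent. Streptavidin microbeads enriched the stained cells before FACS sorting into low and high (top ~1%) gates on anti-HA and streptavidin fluorescence. Each clone's polyreactivity label reflects its gate of origin.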

Sequence	polyreactivity (PSR sort gate)
QGQLVESGGGLVQAGGSLRLSCAASGSTFWRYAMGWYRQAPGKERELVAAISRSGGSTYYADSVKGRFTISRDNAKNTVYLQMHSLKPEDTAFYYCAARYPTPYRKLGSWGQGTQVSVSS	high polyreactivity
QGQLVESGGGLVQAGGSLRLSCAASGSTLVKYAMGTNRQAPGKERELVAAISWSGGRTDYADSVKGRFTSSRDNAKNTVYLQMNSLKPEDTAVYYCAARSTRFYTPGYYYWGQGTQVTVSS	high polyreactivity
QGQLVESGGGLVQAGGSLRLSCAASGSTSGKNAMGWYRQAPGQERELVAVITYSGSRTYYADSVKGRFTISRDNAKNTVYLQMNSLKPEDTAVYYCATRGLKTYQAYDYWGQGTQVTVSS	high polyreactivity
QGQLVESGGGLVQAGGSLRLSCSASGLIFYRYTMGWYRQAPGKEREVVAAISSGGRTYSADSVKGRFTISRDNAKNTVYLQMNSLKPEDTAVYYCATRVYSVHAPSAVPIGGYYWGQGTQVTVSS	high polyreactivity
QGQLVESGGGLVQAGGSLRLSSAASGRIYLTNAMGWYRPAPGKERELVAAITSGGSTYYADSVKGRFTISRDNAKNTVYLQMNSLKPEDTAVYYCNADTDRYWPYEYDYWGQGTQVTVSS	low polyreactivity
QGQLVESGGGLVQAGGSLRVSCAASGYTFDSYAMGLYRQAPGKERELFAAITNGGSTYYADSVKGRFTISRDNAKKTVYLQLNSLKPEDTAVYYCATDDDQLDYLYDYWGPGTQVTVSS	low polyreactivity
QGQLVESGGGLVQAGGSLSLSCAASGFTFRYYTMGWYIQAPGKERALVASISRRGGSTYYADSVKGRFTISRDNAMNTVYLQMHSLKPEGTAVYYCNPLSQVFASRAPKFDYWGQGTQVTVSS	high polyreactivity
QGQLVESGGGLVQAGGSRRLSCAASGYSIDNNAMGWYRQAPGKEREVVASITNSAGSTSYADSVKGRFTISRDTAKNTVYLQMNSLKPEDTAVCYCSAKRYHYFFQYSRSGAYGYWGHGTQVTVSS	high polyreactivity
QGQLVESGGGLVQARGSLRLSCAASGRIFMTYAMAWYIQAPGKERELVAAIRSPSGTTYYADSVKGRFTISRDNAKNTVYLQMNSLKPEDTAVYYCAAGGKYSSYYWGQGTQVTVSS	high polyreactivity
QGQLVESGGGVVQAGGSLRLSSAASRRIFYSYPLGWYRPAPGKERELVAAISSSGGITYYADSVKGRFTISRDNAKNTGSLELNSLKPEDTAVYYCAARRRYKSGYWGQGTQVTVSS	high polyreactivity
QGQLVESGRGLVQAGGSLSLSCAASGSTFFIYAMGWYRQAPGKERELVAAINRSGGRTYYADSVKGRFTISRYTAQNTVYLQMNSLKPEDTAVYYCAAYLGPYVRFYYWGQGTQGTVSS	high polyreactivity
QGQLVESVGGLVQAGGSLRLSCAASGSIFGWYVMGWYRQAPGQERELVAAISSVGSTYYADSVKGRFTISLDNAKNTVYLQMNSLKAEDTAVYYCAKLRYPYLFWDDSEYWGQGTQVTVSS	low polyreactivity
QGQLVETGGGLGQAGGSLRLSCAASGIIFYYYAMGWYRQAPGKERELVAAITGTGSRTYYADSVKGRFTISRDNAKNTVYIQMNSLKPEDTAVYYCYARSFATCSKVPARGYWGQGTQVTVSS	high polyreactivity
QGQLVVSGGGLVQAGGSLRLSCAASGRTFYWNAMGWSIQAPGKERELFASINGGGSTYYADSVKGRFTISRDNAKNTVYLQMYSLKPEDTAVYYCNAESYEFHRAWGDYDDWGHGTQVTVSS	low polyreactivity
QGQRVESGGGLVQAGGSLRLSCAGSGSTCVGYTMGWYRQAPGKERELVAAITSSDGSTYYADSVKGRFTISRDNAKNTVYLQMNSQKPEDTAVYYCAQTTRYPRGYGYWGQGTQVTVSS	low polyreactivity
QIQLVESGGGLVQAGGILRISCAASGRTFGSNTMGWSRQAPGKERELVAAISGTGTSTYYADSVKGRFTISRDNAKNTVYLQMNILKPEDTAVFYCAAGWYKYLFQPHDYWGQGTQVTVSS	low polyreactivity
QIQLVESGGGLVQAGGSLRLSCAASGFTFYWYAMGWYRQAPGKEREFVAAIDQSGGSTYYADSVKGRFTISRDNAKNTVYLQMNSLKPEDTAVYYCAARYILWDGDSWTEFDYWGQGTQVTVSS	low polyreactivity
QLHLVESGGGLVQAGGSLRLSCAASGIIFWYNDMGWYRQAPGKESELVAAISTGGSTNYADSVKGRFTISRDNAKNTVYLQMNSLKPEDTAVYYCAGDWHRAYGGYDYWGEGTQVTVSS	low polyreactivity
QLKLEESGGGLVQAGGSLRLSCAASGITFPWYAMGWYRQAPGKERELVAAINRAGNTNYADSVKGRFTISRDNAKNTVYLQRNSLKTEDTAVYYCAARWRYKYTLGYWGQGTQVTVSS	high polyreactivity
QLQLEESGGGFVQAGGSLRISCAASGAIFLSYAMGWYRQAAAKEMEFVAGISYSGGTTYYADSVKGRFTISRDNAKNTVYLQMNSLKQEVTAVYYCAKRTAVWTSGGYRKRDYWGQATQVTVSS	high polyreactivity
QLQLEESGGGLVQAGGSLRLSCAASGRTFESYGMGLYRQATGKERELVAAISHNADSTYADSVKGRFTISRDNAKNTVYLQMNSLKSEDTAVYYCNAETPVRSDYWGQGTQVTVSS	low polyreactivity
QLQLEESGRGLVQAGGSLRLSCAASGSIFYSNTMGWYRQAPGKERELVAAISTSDTSTYYADSVKGRFTISREKAKNTVYLQMNSLKPEDTAVYYCNAVGSIVLYGYWGQGTQVTVSS	low polyreactivity

Sequence	polyreactivity (PSR sort gate)
QLQLGESGGGLVQAGGSLRLSCAASGSTFIVYAMGWYRQAPGKVRELVAAISSDGSTYYADSVKGRFTISRDNAKNTVYLQMNRLKPEYTAVYYCAAYVYDADTGYDYWGQGTQVTVSS	low polyreactivity
QLQLHESGGGLVQAGGCLSCTASGTIFGQGDMGWYRQAPGKERELVATINDGASTYYADSVKGRFTISRDKAKNTVYLKKNSLKPDDNAVYYCAVFTDITTYFGYWGQGTQVTVSS	low polyreactivity
QLQLLESAVGLVQAGGSLRLSCASSGRIFTQNTMGWYRQAPAKESELVAAINYSGGRTNYADSVKGRFTISRDNAKNTVYLQMNSLKPEDTAVYYCAAGYRRATYGYWGQGTQVTVSS	high polyreactivity
QLQLLESGGGIVQAGGILRLSCAASGFTFAHYAMGWYRQAPGIERELVAAITSRGGSTYYADSVKGRFTISRDNAKNPVYLQMNSLKPEDTAVYYCAAKTLLFIFGYWGQGTHVTVSS	high polyreactivity
QLQLQEGGGGLVQAGGSLRLSCAASGYISYGDVMGSYRQAPGEERELVASIGLDATTNYADSVKGRFNISRDNAKITVYLQMNSLKPEDTAVYYCAAVVGSGVLCGYWGQGTQMTVSS	high polyreactivity
QLQLQESGGGLVQAGGSLRLSCAWSGTIAFTRDLGSYRQAPGKDREFVASIDRGASTYYADSVKGRFTISRDNAKNTVYLQMNSLKPEDTAVYYRAVIAPFYSSFAYWGQGTQVTVSS	high polyreactivity
QLQLQESGGGLVQAGGSLRLSSAASGTISPLPAMGLYSQATGKERELVPGIDTGAITNYADSVKGRFTISRDNAKHTVYLQMNSLKPEDTAVYYCAVFPAAYDYYERYYTEWGQGTQVTVSS	high polyreactivity
QLQLQESGGLVQAGGSLRLSCAASGSISGRNVIGCYRQAPGKEREYVASITDGSSTNYADSVKGRFTISRDNAKNTVYLQMNSLKPKDTAVYYCAAYAQRAKSFGYWGRGTQVTVSS	low polyreactivity
QLQLVESFTGLVQAGGSLRLSCAASVPTFASYAMGWSRQAPGKERELVAVITRGVRTYYADSVKGRITISRDNAMNTVYLQMNSLKPEDTAVYDCAKERYNANYDTSLYDYWGQGTQGTVSS	low polyreactivity
QLQLVESGACLVQAGGSLRLSCAASGRIFTSYSMGWYRHAPGKEREMVAAINRGADTYYADSVKGRFTISRDNAKNTVYLQMNSVKPEDNAVYYCNAADAVSDYPDFQIYDYWGQGTQVTVSS	low polyreactivity
QLQLVESGAGRVQAGGSLRLRCAAAGSILRDNAMVWYRQAPWKEREFVADIRGSDDTTYYADSVKGRFTISRDNGKNSVYLQMNSLKPEDTAVYYSNRDDAWQEYDYWGQGTQVTVSS	low polyreactivity
QLQLVESGGGLDQAGGSLRLSCAASGFTFVSYAMGWYRQAPGKERELVAVISYRAGSTYYADSVKGRFTISRDNAKNTVYLQMYSLKPEDTAVYYCATDRYSRRNDYWGQGTQVTVSS	high polyreactivity
QLQLVESGGGLFQAGGSLRISCAPSGRIFKLNAMGWYRQAPGKEMELVAAINSGTRTYYADSVKGRFTISSYNAKNTVYLQLNSLKPEDTAVYYCAAEGVWWYSRYDYWGQGTQVTVSS	high polyreactivity
QLQLVESGGGLVKAGGSLRLSCAASGSTFGGNAMGWYRQAPGKERELVASISSSGGRTYYADSVKGRFTISRDNAKNTVYLQMNSLTPEDTAVYYCARRYYYQYRYDYWGQGTQVTVSS	high polyreactivity
QLQLVESGGGLVPAGGSLRLSCAASGIIFTSNTMGWYRQAPGKEREFVASINWNGSSTYADSVKGRFTISRDNGKNTVYLEMNSLKPEDTAVYYCNADYISNSVQFSLYDYWGQGTQVTVSS	low polyreactivity
QLQLVESGGGLVQAGGRLRLSCAASGRTFYDYAMGWYRQSPGKERELVAAIDNGGSTYYADSVKGRFTISRDNAKNTVYLQKNSLKPEDTAVYYCNADGATVWSLEYCGQGTQVTVSS	low polyreactivity
QLQLVESGGGLVQAGGRLRLTCAASGSIFFGNVMGLYIQAPGKERELVAVISWSGGTTYYADSVKGRFTISRDNAKNTVYLQMNSLKTEDTAVYYCNARYLRRGDYWGQGTQVTVSS	low polyreactivity
QLQLVESGGGLVQAGGSLRISCAASGFIFNGYAMGWSRQAPGKERELVAAITADVGDTYYADSVKGRFTLSRDNAKYTVYLQLNSLKPDDPAVYYCAADQAEWLDPDDYWGQGTQVTVSS	low polyreactivity
QLQLVESGGGLVQAGGSLRLRCAASGNTFYQYAMGWYIQAPGQQREMVAAISSGGRTNYADSVKGRFTISRDNAKNNVYLQMNSLKPEDTAVYYFAADVGYFKSDYWGQGTQVTVSS	low polyreactivity
QLQLVESGGGLVQAGGSLRLSCAASGFTFRCNAMGWYRQAPGKEMELVAGITSGGSTNYADSVKGRFTISRDNAKNTVYLQMNSLKPEDTAVYYCNAAWYRWKQRYDYWGQGTQVTVSS	low polyreactivity
QLQLVESGGGLVQAGGSLRLSCAASGGIFPYYAMGWYRQAPGKEMELVAAISRSGGITYYADSVKGRFTISRDNAKNTVYLQMNSLKPEDTAVYYCAALSRWRYKRYDYWGQGTQVTVSS	high polyreactivity
